Measurements as given in patent publication US20210292393A1 (published 2021).
Positions count from the first letter of the chain named.

B1: antibody 372 (antibody, V domains shown)
VH: QVQLVESGGGVVQPGRSLRLSCAASGFTFSSYAMHWVRQAPGKGLEWVAVISYDGSNKYYADSVKGRFTISRDNSKNTLYLQMNSLRAEDTAVYYCARDLGTSALLWFGELFLNYGMDVWGQGTTVTVSS
VL: QSALTQPRSVSGSPGQSVTISCTGTSSDVGGYNYVSWYQQHPGKAPKLMIYDVSKRPSGVPDRFSGSKSGNTASLTISGLQAEDEADYYCCSYAGSPILVFGGGTKLTVL
B2: antibody 378 (antibody, V domains shown)
VH: QVQLVQSGAEVKKPGASVKVSCKASGYTFTSYYMHWVRQAPGQGLEWMGIINPSGGSTSYAQKFQGRVTMTRDTSTSTVYMELSSLRSEDTAVYYCARDSGGMDDFWSGYYSPGGDYWGQGTLVTVSS
VL: QSALTQPASVSGSPGQSITISCTGTSSDVGSYNLVSWYQQHPGKAPKLMIYEGSKRPSGVSNRFSGSKSGNTASLTISGLQAEDEADYYCCSYAGSSTWVFGGGTKLTVL
B3: antibody 367 (antibody, V domains shown)
VH: QVQLVQSGAEVKKPGASVKVSCKASGYTFTGYYIHWVRQAPGQGLEWMGWINPNSGGTIYAQKFQGRVTMTRDTSISTAYMELSRLTSDDTAVYSCAREPYYDILTGYYAPRRYFDYWGQGTLVTVSS
VL: QSALTQPASVSGSPGQSITISCTGTSSDVGSYNYVSWYLQHPGKAPKLMIYDVSNRPSGVSNRFSGSKSGNTASLTISGLQAEDEADFYCSSYTSRSTYVFGTGTKVTVL
B4: antibody 380 (antibody, V domains shown)
VH: QVQLVESGGGVVQPGRSLRLSCAASGFTLKNYGMHWVRQAPGKGLEWVIVLSFDGSDEYKADSVRGRFTVSRDNSKNTLFLQMNSLRPDDTAVYYCAREQPTMIEGGRGPFDIWGQGTMVTVSS
VL: EVVMTQSPATLSVSPGDRATLSCRASQGVNSNLAWYQQKPGQAPRLLIYAASTRATGIPARFSASGSGTHFTLTISSLQSEDFAVYYCLQYNNWPPWTFGQGTKLEIK
B5: antibody 536 (antibody, V domains shown)
VH: QVQLVESGGGVVQPGRSLRLSCAASGFTFSSYVMHWVRQAPGKGLEWVALISYDGSNKYYADSVKGRFTISRDNSKNTLYLQMNSLRAEDTAVYYCARGGHIRVGRYFDWLISYFDYWGQGTLVTVSS
VL: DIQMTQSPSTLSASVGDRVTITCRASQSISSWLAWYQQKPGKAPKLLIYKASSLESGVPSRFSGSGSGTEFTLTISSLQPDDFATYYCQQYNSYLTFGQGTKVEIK
B6: antibody 546 (antibody, V domains shown)
VH: QVQLVESGGGVVQPGRSLRLSCAASGFTFSSYGMHWVRQAPGKGLEWVAVIWYDGSNKYYADSVKGRFTISRDNSKNTLYLQMNSLRAEDTAVYYCARNCGGDCVAGDGFDYWGQGTLVTVSS
VL: DIQMTQSPSSLSASVGDRVTITCRASQSISSYLNWYQQKPGKAPNLLIYAASSLQSGVPSRFSGSGSGTDFTLTISSLQPEDFATYYCQQSYSALTWTFGQGTKVEIK
B7: antibody 496 (antibody, V domains shown)
VH: QVQLVQSGAEVKKPGASVKVSCKASGYTFTDYYIHWVRQAPGQGLEWMGWINPNSGGTNYAQKFQGRLTMTRDTSISTAYMELSRLRSDDTAVYYCARVYSMFREFIINPYYYYYGLDVWGQGTTVTVSS
VL: B2 VL with G15R, T76A, D87N, W99L
B8: antibody 504 (antibody, V domains shown)
VH: QVQLVESGGGVVQPGRSLRLSCAASGFTFSSYGMHWVRQAPGKGLEWVAVISYDGSNKYYADSVKGRFTISRDNSKNTLYLQMNSLRAEDTAVYYCAKGGGGGYCSGGSCYSHYFDYWGQGTLVTVSS
VL: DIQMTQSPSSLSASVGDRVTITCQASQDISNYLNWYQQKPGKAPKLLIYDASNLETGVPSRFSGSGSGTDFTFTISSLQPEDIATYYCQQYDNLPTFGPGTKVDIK
B9: antibody 497 (antibody, V domains shown)
VH: QVQLQESGPGLVKPSQTLSLTCTVSGGSINSFGYYWSWIRQHPGKGLEWIGYIYYSGSTDYNPSLNSRVTISLDTSKNQFLLKLTSVTAADTAVYYCAKLTDYYDSSGYSFDYWGQGTLVTVSS
VL: DIQMTQSPSSVSASVGDRVTITCRASQDISRWLAWYQQKPGKAPKLLIYAASSLQSGVPSRFSGRGSGTELTLTISSLQPEDFATYFCQQAYSFPFTFGGGTKVEIK
B10: antibody 492 (antibody, V domains shown)
VH: QVQLVESGGGVVQPGRSLRLSCAASGFTFSSYGMHWVRQAPGKGLEWVAVISYDGSNKYYADSVKGRFTISRDNSKNTLYLQMNSLRAEDTAVYYCAKDGILWWWWGYFDYWGQGTLVTVSS
VL: QSVLTQPPSVSGAPGQRVTISCTGSSSNIGAGFDVHWYQQLPGTAPKLLIYGNSNRPSGVPDRFSGSKSGTSASLAITGLQAEDEADYYCQSYDSSLSVVFGGGTKLTVL
B11: antibody 537 (antibody, V domains shown)
VH: QVQLQQWGAGLLKPSETLSLTCAVYGGSFSGYYWSWIRQPPGKGLEWIGEINHSGSTNYNPSLKSRVTISVDTSKNQFSLKLSSVTAADTAVYYCARGLYYDMGGGFDYWGQGTLVTVSS
VL: not shown
B12: antibody 510 (antibody, V domains shown)
VH: QVQLQESGPGLVKPSQTLSLTCTVSGGSISSGSYYWSWIRQPAGKGLEWIGRIYTSGSTNYNPSLKSRVTISVDTSKNQFSLKLSSVTAADTAVYYCAREGQWLYRFDYWGQGTLVTVSS
VL: QSALTQPASVSGSPGQSITISCTGTSSDVGNYDLVSWYQQHPGKAPKLVIYGVTKRPSGVSNRFSGSKSGNTASLTISGLQAEDEADYYCCSYATGDTSVFGTGTKVTVL
B13: antibody 543 (antibody, V domains shown)
VH: EVQLVESGGGLVQPGRSLRLSCAASGFTFHDYAMHWVRQAPGKGLEWVSGISWNSGSIGYADSVKGRFTISRDNAKNSLYLQMNSLRAEDTALYYCAKDTFGSSSWYRGDSYYYYGMDVWGQGTTVTVSS
VL: QSALTQPASVSGSPGQSITISCTGTSSDVGGYNYVSWYQQHPGKAPKLMIYEVSNRPSGVSNRFSGSKSGNTASLTISGLQAEDEADYYCSSYTSSSTQRYVVFGGGTKLTVL
B14: antibody 509 (antibody, V domains shown)
VH: QVQLVESGGGVVQPGRSLRLSCAASGFNLSSYAMHWVRQASGKGLEWVSLISYDGSIKYYTDSVKGRFTVSGDNSKNTLFLQMNSLRADDSALYYCVRGGVSGPNSFDLWGQGTTVTVSS
VL: DVVMTQSPLSLPVTLGQPASISCRSSQSLVYSDGNTYVNWFQQRPGQSPRRLIYKVSIRASGVPDRFSGSGSGTDFALKISRVEAEDVGVYYCMQGTHWPVTFGQGTKVEIK
B15: antibody 517 (antibody, V domains shown)
VH: B14 VH with S31N, L109M
VL: B14 VL with K55Q
B16: antibody 514 (antibody, V domains shown)
VH: EVQLVQSGAEVKKPGATVKISCKVSGYTFTDYYMHWVQQAPGKGLEWMGLVDPEDGETIYAEKFQGRVTITADTSTDTAYMELSSLRSEDTAVYYCATDCKYDILTGHYSAGYYYYGMDVWGQGTTVTVSS
VL: DIQMTQSPSSLSASVGDRVTITCRASQGISNYLAWFQQKPGKAPKSLIYAASSLQSGVPSKFSGSGSGTDFTLTISSLQPEDFATYYCQQYNSYPFTFGGGTKVEIK
B17: antibody 533 (antibody, V domains shown)
VH: GVQLVESGGVVVQPGGSLRLSCAASGFSFDDYTMHWVRQAPGKGLEWVSLVSWDGGTTYYTDSVKGRFTISRDNSKNSLYLQMNSLRTEDTALYFCAKDSGRIVPAATFDYWGQGTLVTVSS
VL: B16 VL with P8S, G28D, N92Y, S93T, F96L
B18: antibody 541 (antibody, V domains shown)
VH: QVQLVQSGAEVKKPGASVKVSCKASGYTFTSYYVHWVRQAPGQSLEWMGVISPSTGSTTYAQNFQGRVTMTRDTSTTTVYMELSSLRSEDTAVYYCARDDYYDSTRYFDLWGRGTLVTVSS
VL: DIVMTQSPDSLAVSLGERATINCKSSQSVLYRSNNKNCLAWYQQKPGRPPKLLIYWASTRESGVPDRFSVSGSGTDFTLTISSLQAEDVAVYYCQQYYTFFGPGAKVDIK
B19: antibody 522 (antibody, V domains shown)
VH: EVQLVESGGGLVQPGGSLRLSCAASGFNFSSYSMNWVRQAPGKGLEWVSYISSSSSTIYYADSVKGRFTISRDNAKNSLYLQMNSLRDEDTAVYYCARGPEWDIVVVQAENWFDPWGQGTLVTVSS
VL: SYELTQPPSVSVSPGQTARITCSGDALPKQYVYWYQQKPGQAPVLVIYKDSERPSGIPERFSGSSSGTTVTLTISGVQAEDEADYYCQSADSSGTYRGVFGGGTKLTVL
B20: antibody 523 (antibody, V domains shown)
VH: EVQLVESGGVSVQPGGSLRLSCAASGFSFNTYDMHWVRQGTGKGLEWVSGIGTAGDTYYSDSVKGRCTISRDNAKNSLHLLVKSVRAADTAVYYCARGVGGIIDYWGQGTLVTVSS
VL: NFVLSQPHSVSESPGKTVTISCTGNSGSIATKYVQWFQQRPGSAPTTVIYEDNQRPSGVPDRFSGSSDSSSNSASLTISGLKTEDEAHYYCQSYHNRRWVFGGGTKLTVL
B21: antibody 527 (antibody, V domains shown)
VH: QLQLQESGPGLVKPSETLSLTCTVSGGSISSSSYYWGWIRQPPGKGLEWIGSIYYSGSTYYNPSLKSRVTISVDTSKNQFSLKLSSVTAADTAMYYCASHVVVIASSYWCFDLWGRGTLVTVSS
VL: B3 VL with S31G, L39Q, F88Y, R96I, Y99W, T103G, V107L
B22: antibody 516 (antibody, V domains shown)
VH: QVELQQWGAGLLKPSETLSLTCAVYGGSFSGYYWSWIRQPPGKGLEWIGEINHSGSTNYNPSLKSRVTISIDTSKNQFSLKLSSVTAADTAVYYCARGTTVTTFFAPHWYFDLWGRGTLVTVSS
VL: QSALTQPASVSGSPGQSITISCTGTSSDVGGYNYVSWYQQHPGKAPKLMIYDVSNRPSGVSNRFSGSKSGNTASLTISGLQAEDEADYYCSSYTSSSTPYVFGTGTKVTVL

What follows are binders tested against SARS-CoV-2 spike (S) protein, full length, wild type, expressed on the surface of CHO cells (SARS-CoV-2, UniProt P0DTC2 14-1273).

| Binder | median fluorescence fold over isotype [fold over isotype] |
| --- | --- |
| B1 | 30.2 |
| B2 | 25.3 |
| B3 | 26.5 |
| B4 | 1.06 |

These binders were tested against SARS-CoV-2 full length spike protein, wild type, expressed on the surface of CHO cells (SARS-CoV-2, UniProt P0DTC2 14-1273).

| Binder | median fluorescence fold over isotype control [fold over isotype] |
| --- | --- |
| B5 | 2.36 |
| B6 | 19.3 |
| B7 | 19.7 |
| B8 | 2.78 |
| B9 | 28.3 |
| B10 | 9.25 |
| B11 | 4.42 |
| B12 | 1.18 |
| B13 | 13.3 |
| B14 | 10.2 |
| B15 | 10.3 |
| B16 | 1.04 |
| B17 | 4.31 |
| B18 | 1.1 |
| B19 | 9.18 |
| B20 | 5.18 |
| B21 | 10.4 |
| B22 | 3.31 |
